In article PMC12753239:

How the values were obtained:
[1] = biological target: zebrafish Ngly2 (amino acids: 45-663) (zebrafish (Danio rerio)); experiment: SEC; gel filtration at pH 4.0; elution around 150 kDa
[2] = biological target: zebrafish Ngly2 (amino acids: 45-663) (zebrafish (Danio rerio)); experiment: SEC; gel filtration at pH 8.0; Superdex200 increase 10/300 GL, 20 mM Tris-HCl (pH 8.0), 150 mM NaCl; elution around 150 kDa

Substance: zebrafish Ngly2 (amino acids: 45-663) (enzyme)
- stoichiometry N [1]: 2
- stoichiometry N [2]: 2
